From paper PMC2671235 (Biochemistry, 2009)
Values belong to the binder of their own block, whether it stands above or below them. Ends that are not written are not given here.

B1: S100A11 (natural protein, human, UniProt P31949 1-105, looked up)
chain: MAKISSPTETERCIESLIAVFQKYAGKDGYNYTLSKTEFLSFMNTELAAFTKNQKDPGVLDRMMKKLDTNSDGQLDFSEFLNLIGGLAMACHDSFLKAVPSQKRT
B2: Annexin I peptide (peptide)
peptide: Ac-AMVSEFLKQAWFIE

How the values were obtained:
[1] = target: B2; assay: ITC
[2] = target: S100A10 (human, UniProt P60903 1-97); assay: ITC
Sequence of S100A10 (P60903 whole entry): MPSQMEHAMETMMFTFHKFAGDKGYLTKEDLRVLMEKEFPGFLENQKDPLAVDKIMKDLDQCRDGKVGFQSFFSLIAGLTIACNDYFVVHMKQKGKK

[3] = target: B1; assay: ITC
[4] = target: B1; assay: ITC; remark: listed apart in the source
[5] = target: T1, S100A6 (human, UniProt P06703 1-90); assay: ITC
[6] = target: B1; assay: other fluorescence titration
[7] = target: T1, S100A6; assay: other fluorescence titration

Binder: B1
- dH at 15°C [1]: -0.956 kcal/mol
- dH at 35°C [1]: -7.17 kcal/mol
- stoichiometry N [1]: 2 binding sites per dimer

- stoichiometry N [2]: 2 binding sites per dimer
- stoichiometry N [3]: 2 binding sites per dimer
Binder: Ac-STVHEILSKLSLEGY [Annexin II peptide]

Binder: B2
- Kd [4]: 5 ± 2 µM
- Kd [5]: 13 ± 4 µM
- Kd [6]: 5 ± 1 µM
- Kd [7]: 17 ± 4 µM
